Among the data in patent US20250295798A1 (BEIGENE SWITZERLAND, published 2025) are Kd and EC50 values, retold here.

One assay has as its target T1, hHER3-his (human, UniProt P21860 20-643).
T1 construct: Bought reagent; also called Her3-his (cat10201-H08H, SinoBiological); not shown: his tag
Briefly: SPR (BIAcore 8K), mAb captured by anti-human Fc, Her3-his as analyte, 1:1 Langmuir fit, 25 C. Here is the method:
Binding kinetics of the mAbs to the target was determined by SPR on a BIAcore 8K (GE Healthcare). The running buffer, 10 mM HEPES, 150 mM NaCl, 0.05% v/v Surfactant P20, 3 mM EDTA, pH 7.4 (HBS-EP+, GE Healthcare) was used for immobilization and reagent dilutions. All binding kinetics were measured at 25° C. For each injection cycle, mAbs were first captured in different flow cells with an anti-human Fc antibody (Human Antibody Capture Kit, GE Healthcare) immobilized to the sensor chip (Series S CM5, GE Healthcare). Reference flow cell with no captured mAb was also used. Serial dilutions of Her3-his(cat10201-H08H, SinoBiological), and buffer blanks were injected in multiple cycles over the captured mAbs and reference surfaces for association followed by dissociation. The surfaces were regenerated with an injection of 3 M MgCl2 after each cycle. Double-referenced titration data was globally fit to a 1:1 Langmuir binding model to determine the association rate constant, ka (M−1 s−1), and the dissociation rate constant, kd (s−1), using the BIAcore Insight Evaluation Software version 2.0 (GE Healthcare). The equilibrium dissociation constant was calculated as KD(M)=kd/ka.
For orientation: In SPR one partner is held on a chip, and binding of the other changes the refractive index at the surface.

For assay [1], the target named is T2, human HER3 (native, on A375 cells) (human, UniProt P21860 20-1342).
T2 construct: whole, on cells; also called native Her3; human native Her3
Nature of the assay: flow cytometry (FACS) on A375 cells, anti-human IgG Alexa Fluor 647 detection, 4-parameter fit. Here is the method: Cell fluorescence was quantified using a flow cytometer (Guava easyCyte 8HT, Merck-Millipore, USA). EC50 values for dose-dependent binding to human native Her3 were determined by fitting the dose-response data to the four-parameter logistic model with GraphPad Prism.
(In flow cytometry, cells or beads pass a laser one at a time.)

B1: mAb10 (antibody, V domains shown)
VH: EVQLLESGGGLVQPGGSLRLSCAVSGGSFSGYYWSWIRQAPGKGLEWIGEINHSGSTNYNPSLKSRFTISVDNSKNTFYLQMNSLRAEDTAVYYCARDKWTWYFDLWGRGTLVTVSS
VL: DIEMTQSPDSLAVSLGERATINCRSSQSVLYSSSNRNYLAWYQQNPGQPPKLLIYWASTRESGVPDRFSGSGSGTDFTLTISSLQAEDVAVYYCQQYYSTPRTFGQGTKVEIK
notes: Produced from heavy chain and kappa chain plasmids in CHO cells
What is called Kd is the free concentration of one partner at which half of the binding sites on the other are occupied at equilibrium, for simple one-to-one binding. The low end stands for tighter binding, the high end for weaker binding. For orientation: EC50 means the concentration needed to bring the measured effect to its halfway point. Lower therefore signals an effect from little substance. Consider B1, for which the Kd with hHER3-his came to 2.52 nM. Further, the EC50 in assay [1] turned out to be 0.83 nM.

B2: Patritumab (antibody, V domains shown)
VH: QVQLQQWGAGLLKPSETLSLTCAVYGGSFSGYYWSWIRQPPGKGLEWIGEINHSGSTNYNPSLKSRVTISVETSKNQFSLKLSSVTAADTAVYYCARDKWTWYFDLWGRGTLVTVSS
VL: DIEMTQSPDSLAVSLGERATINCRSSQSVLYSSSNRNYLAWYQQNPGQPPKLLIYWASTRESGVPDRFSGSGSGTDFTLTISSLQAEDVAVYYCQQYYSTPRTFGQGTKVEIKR
On to B2, for which the affinity with hHER3-his, expressed as Kd, was 1.51 nM. In addition, in assay [1], the EC50 came out at 0.59 nM.
